Test results published in PMC5180188, “Structural Insights on PHA Binding Protein PhaP from Aeromonas hydrophila” (Scientific Reports, 2016).

Molecular target: the molecule itself
Experiment: SEC + other: dynamic light scattering; Superdex 200 in 50 mM Tris pH 8.0, 500 mM NaCl; DLS at 0.5 mg/ml in aqueous buffer

B1: PhaPAh (PHA binding protein PhaP, a phasin, from Aeromonas hydrophila strain 4AK4) (natural protein, UniProt O32470 1-116, looked up)
chain: MNMDVIKSFTEQMQGFAAPLTRYNQLLASNIEQLTRLQLASANAYAELGLNQLQAVSKVQDTQSLAALGTVQLETASQLSRQMLDDIQKLSALGQQFKEELDVLTADGIKKSTGKA
notes: PhaP (phasin) of Aeromonas hydrophila strain 4AK4, UniProtKB O32470, residues 1-116; called full-length in the methods; Cloned in pGEX-6P-1; residues left by PreScission cleavage are not described; Phasing used a (Ta6Br12)2+ soaked crystal and a selenomethionine-labelled crystal; the final model is of the native crystal; also called wild type; wild-type PhaPAh; not shown: GST, N-terminal, cleaved
- stoichiometry N: 4
